Assay results as given in patent US20230331820A1 (GlaxoSmithKline, published 2023).

Legend:
[1] = biological target: gEgI mutant (338): HSV2 gEgI mutant heterodimer comprising gE and gI ectodomains with insertion of a (HSV2, UniProt P89475 21-416; P06764 21-256); test: ELISA, supernatant
[2] = biological target: gI WT: HSV2 gI wildtype ectodomain (HSV2, UniProt P06764 21-256); test: ELISA, supernatant
[3] = biological target: T1, gEgI mutant (P317R): HSV2 gEgI mutant heterodimer comprising gE and gI ectodomains with mutation P317R in gE (HSV2, UniProt P89475 21-416; P06764 21-256); test: SPR single-cycle kinetics, mAb captured on RAM; gEgI mutant batch 1
[4] = biological target: T1, gEgI mutant (P317R): HSV2 gEgI mutant …; test: SPR single-cycle kinetics, mAb captured on RAM; gEgI mutant batch 2
[5] = biological target: T2, gEgI WT: HSV2 gEgI heterodimer comprising gE and gI wildtype ectodomains (HSV2, UniProt P89475 21-416; P06764 21-256); test: Biacore SPR, gEgI CHO BMP1181 at 10 µg/ml for 180 s over the mAb
[6] = biological target: T2, gEgI WT: HSV2 gEgI heterodimer …; test: Biacore SPR, gEgI HEK BMP1063 at 10 µg/ml for 180 s over the mAb
[7] = biological target: T2, gEgI WT: HSV2 gEgI heterodimer …; test: SPR single-cycle kinetics, mAb captured on RAM, gEgI as analyte, 1:1 model

B1: mAb clone 12, 13 (antibody, V domains shown)
VH: QVQLKESGPGLVAPSQSLSITCTVSGFSLTSYGVHWVRQPPGKGLEWLGVIWAGGSTNYNSALMSRLSISKDNSKSQVFLKMNSLQTDDTAMYFCARGGITSLHNYVMDYWGQGTSVTVSS
VL: DIVLTQSPASLAVSLGQRATISCRASESVEYYGTSLMQWYQQKPGQPPKLLIYAASNVESGVPARFSGSGSGTHFSLNIHPVEEDDIAMYFCQQSRKVPSTFGGGTKLEIK
notes: also called mAb 12; mAb12
For B1, the binding result [1] was “binds”, the binding result [2] was “no binding” and the Kd [3] was 7.68 nM. For the same binder, the koff [3] was 0.00325 s⁻¹, the kon [3] was 422000 M⁻¹ s⁻¹ and the Kd [4] was 11.5 nM. For the same binder, the koff [4] was 0.00324 s⁻¹, the kon [4] was 280000 M⁻¹ s⁻¹ and the “RU Ag/250 RU mAbs” value [5] was 112 RU Ag/250 RU mAbs. For the same binder, the “RU Ag/250 RU mAbs” value [6] was 108 RU Ag/250 RU mAbs, the Kd [7] was 6.89 nM and the koff [7] was 0.00197 s⁻¹. It also gave a kon [7] of 285000 M⁻¹ s⁻¹.
